Results reported in US20240209078A1 (Amgen, published 2024).

Key:
human MSLN = human MSLN (human, UniProt Q13421 37-598); test: cell-based or functional assay
human CDH3 = human CDH3 (human, UniProt P22223 108-829); test: cell-based or functional assay

B1: MS 15-B12 CC × 6H10.09 × (G4) × heFc (A) * heFc (B) × (G4) × CH3 15-E11 CC × 6H10.09 (Seq ID 326 + 327) (bispecific antibody)
chain 1: not shown
chain 2: DKTHTCPPCPAPELLGGPSVFLFPPKPKDTLMISRTPEVTCVVVDVSHEDPEVKFNWYVDGVEVHNAKTKPCEEQYGSTYRCVSVLTVLHQDWLNGKEYKCKVSNKALPAPIEKTISKAKGQPREPQVYTLPPSRKEMTKNQVSLTCLVKGFYPSDIAVEWESNGQPENNYKTTPPVLKSDGSFFLYSKLTVDKSRWQQGNVFSCSVMHEALHNHYTQKSLSLSPGKGGGGQVQLVQSGAEVKKPGASVKVSCKASGYTFTNYWMNWVRQAPGQCLEWMGNIAYGVKGTNYNQKFQGRVTMTVDTSSSTAYMELSRLRSDDTAVYYCATRYFYVMDYWGQGTLVTVSSGGGGSGGGGSGGGGSDIQMTQSPSSLSASVGDRVTITCRASQDISNYLNWYQQKPGKVPKLLIYYTSRLHSGVPSRFSGSGSGTDFTLTISSLQPEDVATYYCVQYAQFPLTFGCGTKVEIKSGGGGSEVQLVESGGGLVQPGGSLKLSCAASGFTFNKYAMNWVRQAPGKGMEWVARIRSKYNNYATYYADAVKDRFTISRDDSKNTLYLQMNNLKTEDTAVYYCVRAGNFGSSYISYFAYWGQGTLVTVSSGGGGSGGGGSGGGGSQTVVTQEPSLTVSPGGTVTITCGSSTGAVTSGNYPNWIQKKPGQAPRGLIGGTKFLAPGTPARFSGSLEGGKAALTLSGVQPEDEAEYYCVLYYSNRWVFGSGTKLTVL
Which results are given for B1?
EC50 GSU KO CDH3 (cytotoxicity; cells CDH3-, MSLN+) (human MSLN): 0.391 nM; EC50 GSU wt (cytotoxicity; cells CDH3+, MSLN+) (human MSLN): 0.0032 nM; Fold selectivity gap, GSU KO CDH3 against GSU wt (human MSLN): 121 fold; EC50 GSU KO MSLN (cytotoxicity; cells CDH3+, MSLN-) (human CDH3): 0.533 nM; EC50 GSU wt (cytotoxicity; cells CDH3+, MSLN+) (human CDH3): 0.0032 nM; Fold selectivity gap, GSU KO MSLN against GSU wt (human CDH3): 165 fold
